# Source: patent publication US20210179684A1
# How the values were obtained:
# [1] = target: p75 neurotrophin receptor on cells (NIH-p75); test: flow cytometry on NIH-p75 cells; 20 nM Biotin-NT3, fluorescent avidin; no competitor
# [2] = target: TrkC receptor on cells (NIH-TrkC); test: flow cytometry on NIH-TrkC cells; 20 nM Biotin-NT3, fluorescent avidin; no competitor
# [3] = target: TrkA receptor on cells (NIH-TrkA); test: flow cytometry on NIH-TrkA cells; 20 nM Biotin-NT3, fluorescent avidin; no competitor
# [4] = target: p75 neurotrophin receptor on cells (NIH-p75); test: competition flow cytometry on NIH-p75 cells; 20 nM Biotin-NT3 tracer, cold competitor at 200 nM; value is the tracer signal left
# [5] = target: p75 neurotrophin receptor on cells (NIH-p75); test: competition flow cytometry on NIH-p75 cells; 20 nM Biotin-NT3 tracer, cold competitor at 200 nM; value is the tracer binding left
# [6] = target: TrkC receptor on cells (NIH-TrkC); test: competition flow cytometry on NIH-TrkC cells; 20 nM Biotin-NT3 tracer, cold competitor at 200 nM; value is the tracer binding left
# [7] = target: TrkA receptor on cells (NIH-TrkA); test: competition flow cytometry on NIH-TrkA cells; 20 nM Biotin-NT3 tracer, cold competitor in 3-fold excess; value is the tracer signal left
# [8] = target: TrkC receptor on cells (NIH-TrkC); test: cell-based or functional assay
# [9] = target: TrkC receptor on cells (NIH-TrkC); test: competition flow cytometry on NIH-TrkC cells; 20 nM Biotin-NT3 tracer, cold competitor at 200 nM; value is the tracer signal left
# [10] = target: TrkA receptor on cells (NIH-TrkA); test: competition flow cytometry on NIH-TrkA cells; 20 nM Biotin-NT3 tracer, cold competitor in 3-fold excess; value is the tracer binding left
MCF (mean channel fluorescence) [1],MCF (mean channel fluorescence) [2],MCF (mean channel fluorescence) [3],MCF (mean channel fluorescence) [4],% of maximal binding to p75 [5] [%],% of maximal binding to TrkC [6] [%],MCF (mean channel fluorescence) [7],MCF (mean channel fluorescence) [9],% of maximal binding to TrkA [10] [%],Substance,% survival at 0.1 nM in culture [8] [%]
76,93,38,,,,,,,"Biotin-NT-3 (wild type NT-3 covalently linked to biotin, tracer) (from UniProt P18280 140-258) (ligand)",
,,,69,89,13,16,,,"NT-3 mutant (SEQ ID NO: 23), D15A/R114A/K115A (from UniProt P18280 140-258) (ligand)",
,,,,,18,20,25,36,"Wild type NT-3 (neurotrophin 3, mature form), unlabeled (from UniProt P18280 140-258) (ligand)",34
